Laboratory results taken from paper PMC11132685.

How the values were obtained:
Assay in all cases: SEC-MALS; purified NACHOs; oligomeric state; conditions not given
[1] = molecular target: tetrabrachion-stabilised recombinant N2 NA (NACHO) of A/ALASKA/251/2015 (not stated | influenza A virus (H3N2) A/ALASKA/251/2015)
[2] = molecular target: tetrabrachion-stabilised recombinant N2 NA (NACHO) of A/DAKAR/14/2014 (not stated | influenza A virus (H3N2) A/DAKAR/14/2014)
[3] = molecular target: tetrabrachion-stabilised recombinant N2 NA (NACHO) of A/ESTONIA/91621/2015 (not stated | influenza A virus (H3N2) A/ESTONIA/91621/2015)
[4] = molecular target: tetrabrachion-stabilised recombinant N2 NA (NACHO) of A/GAMBIA/G0071436/2012 (not stated | influenza A virus (H3N2) A/GAMBIA/G0071436/2012)
[5] = molecular target: tetrabrachion-stabilised recombinant N2 NA (NACHO) of A/HANOI/ELI15597/2015 (not stated | influenza A virus (H3N2) A/HANOI/ELI15597/2015)
[6] = molecular target: tetrabrachion-stabilised recombinant N2 NA (NACHO) of A/HEILONGJIANGXIANGYANG/1134/2011 (not stated | influenza A virus (H3N2) A/HEILONGJIANGXIANGYANG/1134/2011)
[7] = molecular target: tetrabrachion-stabilised recombinant N2 NA (NACHO) of A/HOKKAIDO/10H079/2011 (not stated | influenza A virus (H3N2) A/HOKKAIDO/10H079/2011)
[8] = molecular target: tetrabrachion-stabilised recombinant N2 NA (NACHO) of A/HONGKONG/3089/2017 (not stated | influenza A virus (H3N2) A/HONGKONG/3089/2017)
[9] = molecular target: tetrabrachion-stabilised recombinant N2 NA (NACHO) of A/INDIANA/08/2011 (not stated | influenza A virus (H3N2) A/INDIANA/08/2011)
[10] = molecular target: tetrabrachion-stabilised recombinant N2 NA (NACHO) of A/INDIANA/18/2017 (not stated | influenza A virus (H3N2) A/INDIANA/18/2017)
[11] = molecular target: tetrabrachion-stabilised recombinant N2 NA (NACHO) of A/MINNESOTA/11/2010 (not stated | influenza A virus (H3N2) A/MINNESOTA/11/2010)
[12] = molecular target: tetrabrachion-stabilised recombinant N2 NA (NACHO) of A/NAGANO/2153/2017 (not stated | influenza A virus (H3N2) A/NAGANO/2153/2017)
[13] = molecular target: tetrabrachion-stabilised recombinant N2 NA (NACHO) of A/NEWCALEDONIA/23/2016 (not stated | influenza A virus (H3N2) A/NEWCALEDONIA/23/2016)
[14] = molecular target: tetrabrachion-stabilised recombinant N2 NA (NACHO) of A/OHIO/62/2012 (not stated | influenza A virus (H3N2) A/OHIO/62/2012)
[15] = molecular target: tetrabrachion-stabilised recombinant N2 NA (NACHO) of A/ONTARIO/RV3236/2016 (not stated | influenza A virus (H3N2) A/ONTARIO/RV3236/2016)
[16] = molecular target: tetrabrachion-stabilised recombinant N2 NA (NACHO) of A/PERTH/16/2009 (not stated | influenza A virus (H3N2) A/PERTH/16/2009)
[17] = molecular target: tetrabrachion-stabilised recombinant N2 NA (NACHO) of A/POLAND/19B/2017 (not stated | influenza A virus (H3N2) A/POLAND/19B/2017)
[18] = molecular target: tetrabrachion-stabilised recombinant N2 NA (NACHO) of A/STOCKHOLM/15/2014 (not stated | influenza A virus (H3N2) A/STOCKHOLM/15/2014)
[19] = molecular target: tetrabrachion-stabilised recombinant N2 NA (NACHO) of A/STOCKHOLM/32/2014 (not stated | influenza A virus (H3N2) A/STOCKHOLM/32/2014)
[20] = molecular target: tetrabrachion-stabilised recombinant N2 NA (NACHO) of A/SWITZERLAND/9715293/2013 (not stated | influenza A virus (H3N2) A/SWITZERLAND/9715293/2013)
[21] = molecular target: tetrabrachion-stabilised recombinant N2 NA (NACHO) of A/TASMANIA/1018/2015 (not stated | influenza A virus (H3N2) A/TASMANIA/1018/2015)
[22] = molecular target: tetrabrachion-stabilised recombinant N2 NA (NACHO) of A/TEHRAN/996/2012 (not stated | influenza A virus (H3N2) A/TEHRAN/996/2012)
[23] = molecular target: tetrabrachion-stabilised recombinant N2 NA (NACHO) of A/UTAH/11/2011 (not stated | influenza A virus (H3N2) A/UTAH/11/2011)
[24] = molecular target: tetrabrachion-stabilised recombinant N2 NA (NACHO) of A/WISCONSIN/16/2015 (not stated | influenza A virus (H3N2) A/WISCONSIN/16/2015)
[25] = molecular target: tetrabrachion-stabilised recombinant N2 NA (NACHO) of A/XINJ…/1411/2012 (not stated | influenza A virus (H3N2) A/XINJ…/1411/2012)

**Q.** With “tetrabrachion-stabilised recombinant N2 NA (NACHO) of A/ALASKA/251/2015 (enzyme)” as the substance, how does the stoichiometry N [1] read?
**A.** 4

**Q.** For “tetrabrachion-stabilised recombinant N2 NA (NACHO) of A/DAKAR/14/2014 (enzyme)”, which stoichiometry N [2] is on record?
**A.** 4

**Q.** How did the stoichiometry N [3] turn out when “tetrabrachion-stabilised recombinant N2 NA (NACHO) of A/ESTONIA/91621/2015 (enzyme)” was run?
**A.** 4

**Q.** For “tetrabrachion-stabilised recombinant N2 NA (NACHO) of A/GAMBIA/G0071436/2012 (enzyme)”, which stoichiometry N [4] is on record?
**A.** 4

**Q.** With “tetrabrachion-stabilised recombinant N2 NA (NACHO) of A/HANOI/ELI15597/2015 (enzyme)” as the substance, how does the stoichiometry N [5] read?
**A.** 4

**Q.** “tetrabrachion-stabilised recombinant N2 NA (NACHO) of A/HEILONGJIANGXIANGYANG/1134/2011 (enzyme)” was tested. Which stoichiometry N [6] did it give?
**A.** 4

**Q.** How did the stoichiometry N [7] turn out when “tetrabrachion-stabilised recombinant N2 NA (NACHO) of A/HOKKAIDO/10H079/2011 (enzyme)” was run?
**A.** 4

**Q.** For “tetrabrachion-stabilised recombinant N2 NA (NACHO) of A/HONGKONG/3089/2017 (enzyme)”, which stoichiometry N [8] is on record?
**A.** 4

**Q.** How did the stoichiometry N [9] turn out when “tetrabrachion-stabilised recombinant N2 NA (NACHO) of A/INDIANA/08/2011 (enzyme)” was run?
**A.** 4

**Q.** Which stoichiometry N [10] does the source give for “tetrabrachion-stabilised recombinant N2 NA (NACHO) of A/INDIANA/18/2017 (enzyme)” here?
**A.** 4

**Q.** How did the stoichiometry N [11] turn out when “tetrabrachion-stabilised recombinant N2 NA (NACHO) of A/MINNESOTA/11/2010 (enzyme)” was run?
**A.** 4

**Q.** With “tetrabrachion-stabilised recombinant N2 NA (NACHO) of A/NAGANO/2153/2017 (enzyme)” as the substance, how does the stoichiometry N [12] read?
**A.** 4

**Q.** “tetrabrachion-stabilised recombinant N2 NA (NACHO) of A/NEWCALEDONIA/23/2016 (enzyme)” was tested. Which stoichiometry N [13] did it give?
**A.** 4

**Q.** How did the stoichiometry N [14] turn out when “tetrabrachion-stabilised recombinant N2 NA (NACHO) of A/OHIO/62/2012 (enzyme)” was run?
**A.** 4

**Q.** With “tetrabrachion-stabilised recombinant N2 NA (NACHO) of A/ONTARIO/RV3236/2016 (enzyme)” as the substance, how does the stoichiometry N [15] read?
**A.** 4

**Q.** Which stoichiometry N [16] does the source give for “tetrabrachion-stabilised recombinant N2 NA (NACHO) of A/PERTH/16/2009 (enzyme)” here?
**A.** 4

**Q.** “tetrabrachion-stabilised recombinant N2 NA (NACHO) of A/POLAND/19B/2017 (enzyme)” was tested. Which stoichiometry N [17] did it give?
**A.** 4

**Q.** For “tetrabrachion-stabilised recombinant N2 NA (NACHO) of A/STOCKHOLM/15/2014 (enzyme)”, which stoichiometry N [18] is on record?
**A.** 4

**Q.** For “tetrabrachion-stabilised recombinant N2 NA (NACHO) of A/STOCKHOLM/32/2014 (enzyme)”, which stoichiometry N [19] is on record?
**A.** 4

**Q.** For “tetrabrachion-stabilised recombinant N2 NA (NACHO) of A/SWITZERLAND/9715293/2013 (enzyme)”, which stoichiometry N [20] is on record?
**A.** 4

**Q.** How did the stoichiometry N [21] turn out when “tetrabrachion-stabilised recombinant N2 NA (NACHO) of A/TASMANIA/1018/2015 (enzyme)” was run?
**A.** 4

**Q.** With “tetrabrachion-stabilised recombinant N2 NA (NACHO) of A/TEHRAN/996/2012 (enzyme)” as the substance, how does the stoichiometry N [22] read?
**A.** 4

**Q.** How did the stoichiometry N [23] turn out when “tetrabrachion-stabilised recombinant N2 NA (NACHO) of A/UTAH/11/2011 (enzyme)” was run?
**A.** 4

**Q.** For “tetrabrachion-stabilised recombinant N2 NA (NACHO) of A/WISCONSIN/16/2015 (enzyme)”, which stoichiometry N [24] is on record?
**A.** 4

**Q.** For “tetrabrachion-stabilised recombinant N2 NA (NACHO) of A/XINJ…/1411/2012 (enzyme)”, which stoichiometry N [25] is on record?
**A.** 4
